# Measured values published in article PMC10164577.
# Read-outs that look alike come from different tables or passages of the source.
# Columns and labels:
# [1] = target: Proliferating Cell Nuclear Antigen (PCNA), wild type (yeast) (UniProt P15873)
# [2] = target: Histones H3–H4 (H3 C110A-H4 E63C), Alexa488-labeled (Xenopus laevis); experiment: fluorescence polarisation; 10 nM Alexa488-labeled H3–H4 with increasing CAF-1, Polϵ, Polδ or RPA; 25 mM TRIS pH 7.5, 300 mM NaCl, 5% glycerol, 1 mM EDTA, 0.01% IGEPAL, 0.01% CHAPS, 1 mM DTT; one site binding curve
# [3] = target: PCNA (Saccharomyces cerevisiae) (UniProt P15873); settings: cited from earlier work
# PCNA (Saccharomyces cerevisiae), sequence (P15873 whole entry): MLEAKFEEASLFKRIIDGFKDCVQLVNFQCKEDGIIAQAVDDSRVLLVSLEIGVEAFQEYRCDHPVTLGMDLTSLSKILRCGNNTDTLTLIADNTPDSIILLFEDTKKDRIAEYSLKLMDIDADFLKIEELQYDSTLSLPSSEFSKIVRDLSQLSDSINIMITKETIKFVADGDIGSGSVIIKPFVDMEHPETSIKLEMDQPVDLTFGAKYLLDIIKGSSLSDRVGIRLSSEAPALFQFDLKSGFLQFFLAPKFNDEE
# [4] = target: PCNA (Saccharomyces cerevisiae) (UniProt P15873); settings: cited from earlier work; remark: listed apart in the source
# [5] = target: PCNA K164C, labeled with Alexa Fluor 546 (yeast) (UniProt P15873); experiment: cross-linking; limiting PCNA: 50 nM AF546-PCNA K164C loaded on nicked pUC19 (15 nM) by full-length RFC (15 nM), CAF-1 titrated 0-1 μM, 100-110 mM NaCl; 0.2% glutaraldehyde; nuclease digestion; SDS-PAGE, PCNA fluorescence, band intensities; affinities estimated
# PCNA K164C, labeled with Alexa Fluor 546 (yeast), sequence (P15873 whole entry K164C): as the sequence (P15873 whole entry) above, with K164C counted along it
# Proliferating Cell Nuclear Antigen (PCNA), wild type (yeast), sequence (P15873 whole entry): as the sequence (P15873 whole entry) above
# DNA polymerase epsilon, sequence (P21951 whole entry): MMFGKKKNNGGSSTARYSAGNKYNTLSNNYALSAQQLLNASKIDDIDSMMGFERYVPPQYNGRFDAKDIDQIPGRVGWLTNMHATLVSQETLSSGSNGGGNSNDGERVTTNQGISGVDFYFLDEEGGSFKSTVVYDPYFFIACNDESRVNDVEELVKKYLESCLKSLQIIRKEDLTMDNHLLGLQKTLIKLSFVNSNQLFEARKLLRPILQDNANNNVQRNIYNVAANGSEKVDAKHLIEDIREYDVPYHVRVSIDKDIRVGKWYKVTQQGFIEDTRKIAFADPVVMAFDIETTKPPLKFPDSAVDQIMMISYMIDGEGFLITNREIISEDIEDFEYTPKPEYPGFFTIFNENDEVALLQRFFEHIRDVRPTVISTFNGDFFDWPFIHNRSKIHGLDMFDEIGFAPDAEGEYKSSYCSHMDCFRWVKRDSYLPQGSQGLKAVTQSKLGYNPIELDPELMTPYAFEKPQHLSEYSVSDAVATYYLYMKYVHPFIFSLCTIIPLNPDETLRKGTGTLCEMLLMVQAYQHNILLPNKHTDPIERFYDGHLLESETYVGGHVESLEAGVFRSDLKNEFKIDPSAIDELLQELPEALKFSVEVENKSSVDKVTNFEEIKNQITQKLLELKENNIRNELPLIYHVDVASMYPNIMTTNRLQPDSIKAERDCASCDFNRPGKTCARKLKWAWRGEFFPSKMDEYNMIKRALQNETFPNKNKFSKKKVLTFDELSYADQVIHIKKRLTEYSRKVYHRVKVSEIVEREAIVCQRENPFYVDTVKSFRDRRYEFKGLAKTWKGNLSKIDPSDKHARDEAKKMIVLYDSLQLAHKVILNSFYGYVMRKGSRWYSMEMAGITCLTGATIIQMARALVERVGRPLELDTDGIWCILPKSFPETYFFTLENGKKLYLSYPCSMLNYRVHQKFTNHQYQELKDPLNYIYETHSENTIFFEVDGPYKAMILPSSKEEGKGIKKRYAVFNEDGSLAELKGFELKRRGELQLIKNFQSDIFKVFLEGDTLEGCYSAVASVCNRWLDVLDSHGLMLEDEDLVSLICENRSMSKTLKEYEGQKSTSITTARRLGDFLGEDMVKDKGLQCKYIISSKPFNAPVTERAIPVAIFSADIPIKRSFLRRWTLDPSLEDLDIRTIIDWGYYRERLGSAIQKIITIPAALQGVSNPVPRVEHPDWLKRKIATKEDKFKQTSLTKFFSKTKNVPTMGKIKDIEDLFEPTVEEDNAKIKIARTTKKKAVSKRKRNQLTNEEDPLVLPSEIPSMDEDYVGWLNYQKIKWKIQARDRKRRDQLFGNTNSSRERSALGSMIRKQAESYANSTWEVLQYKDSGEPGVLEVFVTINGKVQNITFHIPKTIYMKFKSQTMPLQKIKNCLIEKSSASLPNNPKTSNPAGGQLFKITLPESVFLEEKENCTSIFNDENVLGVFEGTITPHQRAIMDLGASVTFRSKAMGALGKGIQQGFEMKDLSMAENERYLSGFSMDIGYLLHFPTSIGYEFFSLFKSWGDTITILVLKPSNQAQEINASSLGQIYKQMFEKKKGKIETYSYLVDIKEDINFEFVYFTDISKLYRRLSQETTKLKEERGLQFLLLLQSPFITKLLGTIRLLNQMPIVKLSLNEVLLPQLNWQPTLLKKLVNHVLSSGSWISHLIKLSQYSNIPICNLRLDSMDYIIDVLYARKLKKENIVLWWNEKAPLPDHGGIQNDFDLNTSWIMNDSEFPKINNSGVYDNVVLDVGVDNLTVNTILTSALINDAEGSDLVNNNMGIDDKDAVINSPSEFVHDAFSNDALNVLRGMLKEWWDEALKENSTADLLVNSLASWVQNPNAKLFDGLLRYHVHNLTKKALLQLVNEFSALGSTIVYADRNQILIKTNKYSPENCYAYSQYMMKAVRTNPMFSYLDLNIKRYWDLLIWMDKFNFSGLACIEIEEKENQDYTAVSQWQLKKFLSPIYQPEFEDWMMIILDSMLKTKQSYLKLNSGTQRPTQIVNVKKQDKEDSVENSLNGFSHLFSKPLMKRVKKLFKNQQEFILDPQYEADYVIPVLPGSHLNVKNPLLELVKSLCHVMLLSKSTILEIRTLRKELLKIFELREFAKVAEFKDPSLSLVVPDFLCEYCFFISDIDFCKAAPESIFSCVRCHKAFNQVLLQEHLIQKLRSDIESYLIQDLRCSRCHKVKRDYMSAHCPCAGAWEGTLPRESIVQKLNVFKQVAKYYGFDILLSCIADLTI
# DNA polymerase epsilon, sequence (P24482 whole entry, further chain): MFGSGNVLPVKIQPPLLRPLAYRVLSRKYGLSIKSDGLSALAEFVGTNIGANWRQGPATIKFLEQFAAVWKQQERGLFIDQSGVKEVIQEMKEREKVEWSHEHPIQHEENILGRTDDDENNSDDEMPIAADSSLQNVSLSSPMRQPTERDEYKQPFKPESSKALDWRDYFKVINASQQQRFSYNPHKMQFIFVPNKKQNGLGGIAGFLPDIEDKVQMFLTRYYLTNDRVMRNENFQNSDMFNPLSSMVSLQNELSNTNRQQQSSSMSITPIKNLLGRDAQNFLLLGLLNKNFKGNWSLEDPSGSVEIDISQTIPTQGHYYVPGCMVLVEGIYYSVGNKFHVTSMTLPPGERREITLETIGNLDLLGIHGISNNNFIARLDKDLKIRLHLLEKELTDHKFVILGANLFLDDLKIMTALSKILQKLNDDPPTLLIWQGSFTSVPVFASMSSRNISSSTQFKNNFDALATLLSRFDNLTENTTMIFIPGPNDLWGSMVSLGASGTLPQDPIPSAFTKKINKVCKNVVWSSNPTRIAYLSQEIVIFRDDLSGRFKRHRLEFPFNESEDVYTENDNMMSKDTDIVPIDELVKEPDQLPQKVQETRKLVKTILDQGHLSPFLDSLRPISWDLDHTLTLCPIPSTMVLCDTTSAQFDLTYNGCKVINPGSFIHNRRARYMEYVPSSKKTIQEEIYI
# DNA polymerase epsilon, sequence (P27344 whole entry, further chain): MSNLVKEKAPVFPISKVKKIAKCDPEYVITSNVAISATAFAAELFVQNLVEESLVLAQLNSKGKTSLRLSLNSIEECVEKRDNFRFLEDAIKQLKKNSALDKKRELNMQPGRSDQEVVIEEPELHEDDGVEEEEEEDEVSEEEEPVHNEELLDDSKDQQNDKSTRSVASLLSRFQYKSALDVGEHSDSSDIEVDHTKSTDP
# DNA polymerase epsilon, sequence (Q04603 whole entry, further chain): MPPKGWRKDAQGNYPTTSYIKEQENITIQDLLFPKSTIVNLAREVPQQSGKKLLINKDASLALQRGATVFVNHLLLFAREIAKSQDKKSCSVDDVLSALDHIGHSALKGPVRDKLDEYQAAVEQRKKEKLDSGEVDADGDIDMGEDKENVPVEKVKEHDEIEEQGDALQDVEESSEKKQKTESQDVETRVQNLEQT
substance,measurement,setting,value
DNA polymerase epsilon (Polϵ) (complex),"maximum leading-strand replication rate in pulse-chase with the yeast replisome (+RFC/PCNA, Polδ omitted) with 180 nM CAF-1 added; ∼1.09 kb/min without CAF-1",[1],0.85 kb/min
same,Kd,[2],28 nM
DNA polymerase epsilon (from UniProt P21951),Kd,[3],326 nM
DNA polymerase delta (from UniProt P15436),Kd,[4],13.7 nM
CAF-1_ΔAD mutant (acidic domain deleted) (from UniProt Q12495 1-606; Q04199 1-468; P13712 1-422) (complex),Kd,[5],< 50 nM
"Chromatin Assembly Factor-1 (CAF-1), wild type (from UniProt Q12495 1-606; Q04199 1-468; P13712 1-422) (complex)",Kd,[2],1.1 nM
